The results in this text go back to article doi:10.1101/2023.03.28.534355 (bioRxiv, 2023).

Data set [1] deals with GBP1 D308S/L309A/P310A (human) (UniProt P32455). The data set can be described thus: mass photometry.
In data set [2] the target is human Guanylate-Binding Protein 1 (GBP1), full-length, non-farnesylated (human) (UniProt P32455). Kind of data set: mass photometry.
The target is the same in data set [3]. Kind of data set: SEC-MALS.
The data set “mass photometry” deals with the molecule itself. Kind of data set: mass photometry.

For “GBP1 D308S/L309A/P310A (from UniProt P32455 1-592) (enzyme)”, the stoichiometry N in data set [1] was determined as 2.
As to “human Guanylate-Binding Protein 1 (GBP1), full-length, non-farnesylated (from UniProt P32455 1-592) (enzyme)”, the stoichiometry N in data set [2] and in data set [3] was 2 each time.

B1: GBP1 D308S (enzyme)
chain: MASEIHMTGPMCLIENTNGRLMANPEALKILSAITQPMVVVAIVGLYRTGKSYLMNKLAGKKKGFSLGSTVQSHTKGIWMWCVPHPKKPGHILVLLDTEGLGDVEKGDNQNDSWIFALAVLLSSTFVYNSIGTINQQAMDQLYYVTELTHRIRSKSSPDENENEVEDSADFVSFFPDFVWTLRDFSLDLEADGQPLTPDEYLTYSLKLKKGTSQKDETFNLPRLCIRKFFPKKKCFVFDRPVHRRKLAQLEKLQDEELDPEFVQQVADFCSYIFSNSKTKTLSGGIQVNGPRLESLVLTYVNAISSGSLPCMENAVLALAQIENSAAVQKAIAHYEQQMGQKVQLPTETLQELLDLHRDSEREAIEVFIRSSFKDVDHLFQKELAAQLEKKRDDFCKQNQEASSDRCSALLQVIFSPLEEEVKAGIYSKPGGYRLFVQKLQDLKKKYYEEPRKGIQAEEILQTYLKSKESMTDAILQTDQTLTEKEKEIEVERVKAESAQASAKMLQEMQRKNEQMMEQKERSYQEHLKQLTEKMENDRVQLLKEQERTLALKLQEQEQLLKEGFQKESRIMKNEIQDLQTKMRRRKACTIS
Regarding B1, in “mass photometry”, the “stoichiometry N” value was 2.
